{"source": "patent US20260258110A1", "about": "“VOLTAGE GATED SODIUM CHANNEL-SPECIFIC PEPTIDE APTAMERS AND USES THEREOF” (The Medical College of Wisconsin, Inc., priority 2023, published 2026)", "key": {"[1]": {"target": "T1, human Nav1.8 (Homo sapiens, UniProt Q9Y5Y9, DEL1030-1030/M1713V)", "T1 construct": "cell line made in house", "T1 sequence (Q9Y5Y9 with tags, fused parts or gaps DEL1030-1030/M1713V)": "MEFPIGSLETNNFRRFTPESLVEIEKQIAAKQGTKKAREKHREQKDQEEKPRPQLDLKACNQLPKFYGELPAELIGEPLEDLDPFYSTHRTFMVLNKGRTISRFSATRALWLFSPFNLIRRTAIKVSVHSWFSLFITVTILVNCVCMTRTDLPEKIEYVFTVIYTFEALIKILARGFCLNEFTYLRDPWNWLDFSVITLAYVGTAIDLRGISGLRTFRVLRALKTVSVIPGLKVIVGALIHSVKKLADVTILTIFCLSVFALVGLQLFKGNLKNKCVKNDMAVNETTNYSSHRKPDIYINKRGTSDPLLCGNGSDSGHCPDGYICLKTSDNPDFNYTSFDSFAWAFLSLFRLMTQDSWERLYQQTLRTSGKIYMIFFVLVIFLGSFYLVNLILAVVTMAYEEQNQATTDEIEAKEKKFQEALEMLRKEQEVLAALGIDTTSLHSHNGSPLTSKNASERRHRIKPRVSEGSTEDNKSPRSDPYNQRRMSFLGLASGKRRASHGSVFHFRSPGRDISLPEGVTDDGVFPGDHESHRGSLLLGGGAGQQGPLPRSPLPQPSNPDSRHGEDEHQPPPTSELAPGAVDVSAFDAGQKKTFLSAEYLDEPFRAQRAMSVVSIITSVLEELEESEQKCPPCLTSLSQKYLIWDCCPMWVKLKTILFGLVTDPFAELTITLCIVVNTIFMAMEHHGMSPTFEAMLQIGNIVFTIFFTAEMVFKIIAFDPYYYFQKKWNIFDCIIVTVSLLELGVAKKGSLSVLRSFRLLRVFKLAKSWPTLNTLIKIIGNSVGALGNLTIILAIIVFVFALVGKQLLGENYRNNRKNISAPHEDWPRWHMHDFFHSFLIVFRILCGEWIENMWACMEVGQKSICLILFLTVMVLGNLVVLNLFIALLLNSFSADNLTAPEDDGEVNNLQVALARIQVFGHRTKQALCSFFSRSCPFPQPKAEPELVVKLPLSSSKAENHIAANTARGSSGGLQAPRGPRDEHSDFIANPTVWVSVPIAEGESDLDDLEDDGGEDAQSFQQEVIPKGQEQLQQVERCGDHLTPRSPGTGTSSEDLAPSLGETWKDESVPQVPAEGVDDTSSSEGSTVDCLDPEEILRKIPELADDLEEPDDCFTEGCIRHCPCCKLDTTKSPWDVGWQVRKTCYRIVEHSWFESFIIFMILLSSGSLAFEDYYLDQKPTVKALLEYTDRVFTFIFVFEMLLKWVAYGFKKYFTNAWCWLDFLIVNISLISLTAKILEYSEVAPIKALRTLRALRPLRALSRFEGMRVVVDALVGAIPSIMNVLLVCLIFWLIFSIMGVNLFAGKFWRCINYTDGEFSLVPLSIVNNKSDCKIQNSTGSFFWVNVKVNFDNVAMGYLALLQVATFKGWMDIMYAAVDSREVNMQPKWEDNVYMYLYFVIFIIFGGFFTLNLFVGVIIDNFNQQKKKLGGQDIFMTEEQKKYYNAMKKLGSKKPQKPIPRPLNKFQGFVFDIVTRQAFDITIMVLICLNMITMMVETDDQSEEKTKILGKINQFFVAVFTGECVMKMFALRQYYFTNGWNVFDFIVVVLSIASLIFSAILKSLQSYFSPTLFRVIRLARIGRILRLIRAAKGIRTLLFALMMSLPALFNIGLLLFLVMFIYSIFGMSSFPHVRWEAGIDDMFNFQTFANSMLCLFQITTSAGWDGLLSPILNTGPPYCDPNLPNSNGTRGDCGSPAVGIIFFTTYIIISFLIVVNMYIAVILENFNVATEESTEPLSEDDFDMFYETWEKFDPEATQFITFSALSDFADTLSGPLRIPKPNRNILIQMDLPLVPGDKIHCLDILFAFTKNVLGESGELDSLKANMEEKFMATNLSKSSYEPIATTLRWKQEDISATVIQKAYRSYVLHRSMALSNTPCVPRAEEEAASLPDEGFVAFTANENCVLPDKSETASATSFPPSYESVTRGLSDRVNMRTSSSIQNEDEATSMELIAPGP", "test": "Whole-cell voltage-clamp of INa1.8 in HEK1.8 stable cells", "assay_type": "cell-based", "parameters": "sensitivity of INa1.8 to channel blocker: dose or concentration left out as unconfirmed"}, "[2]": {"target": "T2, hNav1.7 (Homo sapiens, UniProt Q15858)", "T2 construct": "the Nav1.7 antibody detected full-length Nav1.7 only in HEK1.7 cells", "T2 sequence (Q15858 whole entry)": "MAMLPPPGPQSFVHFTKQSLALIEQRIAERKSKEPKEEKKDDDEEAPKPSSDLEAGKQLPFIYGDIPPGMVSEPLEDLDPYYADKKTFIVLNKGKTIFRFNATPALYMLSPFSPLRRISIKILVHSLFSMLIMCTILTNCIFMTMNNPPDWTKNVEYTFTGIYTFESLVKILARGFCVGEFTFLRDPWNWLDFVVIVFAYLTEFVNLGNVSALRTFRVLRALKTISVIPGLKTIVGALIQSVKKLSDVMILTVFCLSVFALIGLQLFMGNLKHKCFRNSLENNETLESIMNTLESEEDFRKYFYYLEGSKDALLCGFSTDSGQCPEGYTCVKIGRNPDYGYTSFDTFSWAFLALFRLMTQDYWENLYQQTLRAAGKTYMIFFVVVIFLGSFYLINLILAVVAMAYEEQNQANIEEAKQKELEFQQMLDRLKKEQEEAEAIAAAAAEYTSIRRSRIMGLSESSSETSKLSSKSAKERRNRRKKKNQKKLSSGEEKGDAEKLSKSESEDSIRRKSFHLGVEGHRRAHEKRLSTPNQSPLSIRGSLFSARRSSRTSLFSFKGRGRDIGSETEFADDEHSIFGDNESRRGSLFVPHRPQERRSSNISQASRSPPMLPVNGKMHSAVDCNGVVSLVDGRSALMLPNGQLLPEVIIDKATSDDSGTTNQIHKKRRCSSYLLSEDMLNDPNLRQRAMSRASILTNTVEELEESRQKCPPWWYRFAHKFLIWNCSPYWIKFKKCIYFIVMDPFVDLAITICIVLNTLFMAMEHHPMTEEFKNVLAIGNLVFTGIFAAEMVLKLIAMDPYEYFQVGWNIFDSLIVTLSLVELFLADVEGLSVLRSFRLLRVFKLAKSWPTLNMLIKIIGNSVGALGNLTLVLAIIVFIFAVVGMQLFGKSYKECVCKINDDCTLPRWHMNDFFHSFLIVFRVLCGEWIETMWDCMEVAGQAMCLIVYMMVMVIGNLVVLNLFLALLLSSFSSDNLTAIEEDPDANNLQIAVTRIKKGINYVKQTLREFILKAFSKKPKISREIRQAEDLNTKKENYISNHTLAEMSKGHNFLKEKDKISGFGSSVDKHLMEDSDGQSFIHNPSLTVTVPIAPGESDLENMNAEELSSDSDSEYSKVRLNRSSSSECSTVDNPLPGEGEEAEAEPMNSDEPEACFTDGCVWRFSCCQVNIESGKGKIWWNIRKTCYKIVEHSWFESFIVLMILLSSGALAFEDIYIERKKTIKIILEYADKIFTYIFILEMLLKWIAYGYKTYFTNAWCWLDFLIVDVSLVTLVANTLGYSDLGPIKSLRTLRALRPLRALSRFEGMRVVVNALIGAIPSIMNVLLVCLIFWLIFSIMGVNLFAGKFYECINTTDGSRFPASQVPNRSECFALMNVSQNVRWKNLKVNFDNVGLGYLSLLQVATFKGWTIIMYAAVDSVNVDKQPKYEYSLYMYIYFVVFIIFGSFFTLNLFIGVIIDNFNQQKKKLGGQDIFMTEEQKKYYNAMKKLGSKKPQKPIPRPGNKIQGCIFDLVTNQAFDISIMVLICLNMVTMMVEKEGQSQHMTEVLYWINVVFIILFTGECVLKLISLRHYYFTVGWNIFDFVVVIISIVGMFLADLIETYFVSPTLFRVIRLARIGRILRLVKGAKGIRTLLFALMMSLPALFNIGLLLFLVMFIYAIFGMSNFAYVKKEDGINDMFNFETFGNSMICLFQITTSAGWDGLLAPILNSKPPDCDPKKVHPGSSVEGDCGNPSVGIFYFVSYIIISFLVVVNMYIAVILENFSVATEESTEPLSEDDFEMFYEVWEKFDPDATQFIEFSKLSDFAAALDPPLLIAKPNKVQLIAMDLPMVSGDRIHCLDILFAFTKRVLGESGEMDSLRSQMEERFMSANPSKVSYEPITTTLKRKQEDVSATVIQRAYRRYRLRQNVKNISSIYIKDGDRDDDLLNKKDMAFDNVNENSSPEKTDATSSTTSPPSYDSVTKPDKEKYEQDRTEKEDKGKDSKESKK", "test": "Whole-cell voltage-clamp of INa1.7 in HEK1.7 cells after plasmid transfection", "assay_type": "cell-based", "conditions": "for INa1.7 in presence of NaviPA1 mutants: 3-4 days after transfection", "procedure": "The stable expression of each construct was verified by transfection into HEK293 cells stably expressing human wild-type Nav1.7 (HEK1.7 cells), followed by immunoblots (IB). Representative tests for GFPlinker (GFP), 1.7iPAs (1, 2, 3, 4, 6) were shown (FIG. 1H, I). Initial screening experiments by whole-cell voltage-clamp of INa1.7 in HEK1.7 cells, transfected with plasmids encoding nine 1.7iPAs (1.7iPA1-9), were performed to characterize the INa1.7. The presence of 9 different 1.7iPAs in HEK1.7 cells on peak INa1.7 density (3 days after transfection) were summarized in FIG. 1F, in which the data points recorded by at least 2 replicates were combined. […] These experiments thus identified 1.7iPA1 and 1.7iPA4 (both derived from ICL1), as well as 1.7iPA6 (from ICL2), as effective iPAs (>50% INa1.7 inhibition). We next focused on the validation of INa1.7 inhibition and channel kinetics by 1.7iPA1, 4, and 6 on HEK1.7 cells in new experiments. […] The 1.7iPA1 peptide is polyampholytic, enriched with 38.6% positively charged arginine or lysine (17/44), 23% of serine (10/44), 14% acidic residues (6/44); and is highly conserved between rodents and humans (FIG. 2F).\nEP recordings were performed, as we described previously with minor modifications at room temperature (22~25° C.) (10, 12), in a blind manner where the electrophysiologist was not aware of the treatment. Patch pipettes 0.9-2.5M2 resistance were formed from borosilicate glass (King Precision Glass Co., Claremont, CA) and fire polished. Recordings were made with an […] amplifier (Molecular Devices, Downingtown, PA). Signals were filtered at 5 kHz and sampled at 20 and 50 kHz (adopted from literature) (13-22) with a Digidata 1440A digitizer and pClamp10 software (Molecular Devices, San Jose, CA). Series resistance (3-5M (2) was monitored before and after the recordings, and data were discarded if the resistance changed by 20%. After achieving the whole-cell recording, capacitance (Cm) and series resistance (Rs) were compensated accordingly.\nSodium channel current (INa) recording in cultured cell lines. Whole-cell voltage-clamp to recording INa was performed in HEK1.7, HEK1.1, HEK1.3, HEK1.6, HEK1.5, HEK1.8, CHO1.8, NG108-15 cells, and F11cells in current-density (I-V) and fast-inactivation voltage protocols. External solution consists of the following (in mM): 110 NaCl, 20 tetraethylammonium-Cl, […]), 0.1 CaCl2, 5 MgCl2, 10 HEPES and 5.56 mM glucose (pH 7.4, 310-315 mosM/L). The internal pipette solution consisted of (in mM): 10 NaCl, 130 CsCl, 5 MgCl2, 5 EGTA, 2.5 Na2+ATP and 10 HEPES (pH 7.2). After formation of a tight seal (maximal leak amplitude <150 pA), membrane resistance and capacitance were determined. The voltage dependence of activation was assessed from holding potential using 50 ms pulses (test-pulse) to a range of test potentials from −100 mV to +50 mV in 5 mV or 10 mV incremental steps with an interval of 5 s. Current density was calculated by normalizing maximal peak currents with cell capacitance. The voltage dependence of steady-state fast inactivation was measured using a two-step protocol. A 500 ms pre-pulse with various potentials ranging from Vhold to +10 mV in 5 or 10 mV incremental steps was used to inactivate the channels. This pre-pulse was immediately followed by a 40 ms test-pulse at 0 mV to determine the remaining fraction of available channels. Inward current measured during the test-pulse to 0 mV was normalized to the cell's maximum test-pulse inward current. To determine the conductance-voltage (I-V) relationships of voltage-dependent activation, the peak current densities during each voltage command step were fitted to a smooth curve with a Boltzmann equation: I=Gmax (V-Erev)/[(1+exp [(V−V50)/k))], which provided the maximum conductance (Gmax). Normalized activation curves were fitted with a Boltzmann equation G/Gmax=1/(1+exp (V50-Vm)/k), where G was calculated as follows: G=I/(Vm−Erev). […]"}, "[3]": {"target": "T3, Nav1.7 (Homo sapiens, UniProt Q15858)", "T3 construct": "the Nav1.7 antibody detected full-length Nav1.7 only in HEK1.7 cells", "T3 sequence (Q15858 whole entry)": "as above", "test": "Immunoblot of membrane Nav1.7 in fractionated HEK1.7 cells (intracellular trafficking)", "assay_type": "cell-based", "conditions": "fractionated HEK1.7 cells after transfection", "procedure": "Since Nav1.7 is an integral membrane protein, we therefore tested whether NaviPA1 expression in the HEK1.7 cells would interrupt Nav1.7 intracellular trafficking. […] Studies have shown that IDRs in the membrane proteins engage in interactions with the membrane (33). To test whether NaviPA1 interference of Nav1.7 might be via […] of Nav1.7, GFP affinity pull-down by ChromoTek GFP-Trap (ChromoTek, Rosemont, IL) was performed after transfection of GFP-NaviPA1 in HEK1.7 cells using GFPlinker (GFP) and GFP-1.7iPA2 (FIG. 1) as the controls. Cell lysates were prepared by a lysis buffer containing 0.5% Nonidet p40, a ‘non-denaturing’ mild lysis detergent, for preventing interaction breaking and maximizing the retention of NaviPA1-protein interactions (34). […] It has been reported that polybasic IDRs in transmembrane proteins preferably bind to negatively charged lipids (36, 37). We reasoned that NaviPA1 might be able to bind phosphoinositides, and this hypothesis was tested by using phosphatidylinositol phosphate (PIP) strips (Echelon PIP Strip, Salt Lake City, UT). […]\nNaviPA1 is a polybasic arginine/lysine and serine-enriched peptide. […] However, the full-length Nav1.7 membrane integration, which is determined by its TM domains but not intracellular sequences, was unaffected in the presence of NaviPA1 (FIG. 6F). […]"}, "[4]": {"tested_on": "DRG neurons", "test": "Whole-cell current-clamp of dissociated DRG neurons from TNI rats (excitability)", "assay_type": "cell-based, rat", "conditions": "transduced small/medium-sized DRG neurons, male TNI rats, compared to sham", "text": "Increased excitability of nociceptive PSNs is a fundamental process underlying neuropathic pain (46). We therefore examined whether AAV6-NaviPA1 treatment reverses the enhanced neuronal excitability of nociceptive PSNs following TNI (12, 47), using the whole-cell current-clamp AP recording of DRG dissociated neurons from rats after the treatment protocol shown in FIG. 7B. […] We therefore recorded from randomly chosen small/medium-sized neurons (<35 μm in diameter) (51) in the cultures from dissociated L4 and L5 DRG. Transduced neurons were identified by GFP fluorescence, and excitability was evaluated by measuring rheobase and repetitive action potential (AP) firing during 250 ms current pulses stepping from 100 pA and 280 pA current injection. […]\nWhole-cell current-clamp recording on dissociated DRG neurons (male rats). […] The membrane input resistance was calculated by dividing the ending amplitude of steady-state hyperpolarizing voltage deflection by the injected current (27). […] The baseline potentials were recorded for 20 ms before the stimulus pulses were injected into the neurons. […] AP frequency was determined by quantifying the number of APs elicited in response to depolarizing current injections (250 ms)."}, "[5]": {"tested_on": "mechanical hypersensitivity", "conditions": "after i.p. injection; cited from earlier work"}, "[6]": {"tested_on": "BK potassium channels", "test": "BK IKv recording in NG108-15 cells", "assay_type": "cell-based"}, "[7]": {"conditions": "HEK1.7 cells, initial screening"}}, "note": "Where two headings read alike, the source gives them in different places. No end group written: not given here.", "data": [{"molecule": "NaviPA1mt1: GFP-fused NaviPA1 mutant, alanine substitution for ten serine residues (AAKAAKERRNRRKKKKQKMAAGEEKGDDEKLAKAGAEEAIRKKA; also: GFP fusion)", "values": [{"measurement": "effect on INa1.8", "setting": "[1]; HEK1.8 cells", "value": "did not change"}, {"measurement": "INa1.7 in presence of NaviPA1 mutants", "setting": "[2]; HEK1.7 cells", "value": "comparable to naïve and GFPNP transfected HEK1.7 cells"}, {"measurement": "membrane Nav1.7 protein / Nav1.7 membrane integration", "setting": "[3]", "value": "not to impede"}]}, {"molecule": "NaviPA1mt2: GFP-fused NaviPA1 mutant, alanine substitution for nine arginine or lysine within predicted polybasic NLS (SSKSAKEAANAAAAAAQAMSSGEEKGDDEKLSKSGSEESIRKKS; also: GFP fusion)", "values": [{"measurement": "effect on INa1.8", "setting": "[1]; HEK1.8 cells", "value": "did not change"}, {"measurement": "INa1.7 in presence of NaviPA1 mutants", "setting": "[2]; HEK1.7 cells", "value": "comparable to naïve and GFPNP transfected HEK1.7 cells"}, {"measurement": "membrane Nav1.7 protein / Nav1.7 membrane integration", "setting": "[3]", "value": "not to impede"}]}, {"molecule": "NC1=N[C@H](O)[C@H]2[C@H]3O[C@]4(O)O[C@@H]([C@@H](O)[C@@]2(N1)[C@@H]4O)[C@]3(O)CO", "note": "[TTX, tetrodotoxin, reference compound]", "values": [{"measurement": "sensitivity of INa1.8 to channel blocker", "setting": "[1]", "value": "resistant"}, {"measurement": "Peak INa1.7", "setting": "[2]", "value": "2 ± 1 (10) pA/pF"}]}, {"molecule": "Nav1.7iPA3: inert peptide from N-terminus of Nav1.7 (SEQ ID NO: 3), used as control NP (SEEKAKEHKDEKKDDEEEGPKPSSDLEAGKQ)", "values": [{"measurement": "Activation V50", "setting": "[2]; [7]", "value": "25.4 ± 1.2 (22) mV"}, {"measurement": "Inactivation V50", "setting": "[2]; [7]", "value": "61.6 ± 2 (18) mV"}, {"measurement": "Peak INa1.7", "setting": "[2]; HEK1.7 cells, initial screening after plasmid transfection, value ± spread, (n) in cell", "value": "118 ± 1 (22) pA/pF"}, {"measurement": "effect on peak INa1.7 density", "setting": "[2]; compared to sham transfected HEK1.7 cells", "value": "no significant effects"}, {"measurement": "rheobase and frequency of evoked APs in neurons from TNI rats", "setting": "[4]", "value": "no significant effects"}]}, {"molecule": "NCC1(CC(=O)O)CCCCC1", "note": "[gabapentin, Gabapentin]", "values": [{"measurement": "time of maximal reduction of mechanical hypersensitivity", "setting": "[5]", "value": "30 to 60", "unit": "min"}]}, {"molecule": "1.7/1.8iPA: disordered polyacidic 38mer from Nav1.7 intracellular loop 2 with AnkG and Pdzd2-I binding domains; dual Nav1.7/1.8 inhibitory peptide aptamer (PGESDLEIMNTEELSSDSDSDYSKEKRNRSSSSECSTV)", "values": [{"measurement": "effect on INa1.8", "setting": "[1]; preliminary data, expression in HEK1.8 cells", "value": "suppresses"}, {"measurement": "effect on INa1.7", "setting": "[2]; preliminary data, 38mer expressed in HEK1.7 cells", "value": "inhibits"}, {"measurement": "Nav1.7 voltage-gated activation", "setting": "[2]; preliminary data, HEK1.7 cells", "value": "possibly desensitized"}, {"measurement": "effect on BK IKv", "setting": "[6]", "value": "No change"}]}, {"molecule": "COc1cc(NC(=O)c2ccc(-c3ccc(Cl)cc3)o2)cc(OC)c1", "note": "[A803467, reference compound]", "values": [{"measurement": "INa1.8 inhibition", "setting": "[1]; 100 nM, HEK1.8 cells", "value": 85, "unit": "%"}, {"measurement": "sensitivity of INa1.8 to channel blocker", "setting": "[1]; HEK1.8 cells", "value": "sensitive"}]}]}
